From PMC4915018, “Brain phosphorylation of MeCP2 at serine 164 is developmentally regulated and globally alters its chromatin association”

Molecular target: MeCP2(74-172) WT (human, UniProt P51608 74-172)
Assay: EMSA; subtly but consistently higher affinity for mCG; 10 mM Tris-HCl (pH not given), 50 mM KCl, 0.5 mM MgCl2, 0.1 mM EDTA, 5% glycerol, 0.1 mg/ml BSA, RT 30 min; 0-500 ng protein, 200 ng probe; 6% acrylamide, 1X TAE, ethidium bromide
Conditions: protein: recombinant; blunt

Sequence of MeCP2(74-172) WT (P51608 74-172): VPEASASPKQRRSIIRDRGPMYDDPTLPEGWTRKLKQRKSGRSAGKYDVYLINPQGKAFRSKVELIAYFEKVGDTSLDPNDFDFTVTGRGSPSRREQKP

B1: CpG methylated probe (dsDNA)
DNA 1: CTAAAGGAAAAGTGACGCACTGTTTTACACCTTGGTTTT
DNA 2: AAAACCAAGGTGTAAAACAGTGCGTCACTTTTCCTTTAG
modifications: symmetric methyl-C at the only CpG (C16 of S1, C23 of S2; position inferred, bold marks lost)
- binding result: binds
